Data on 22 molecules can be found in patent publication US20210130436A1 (published 2021).

Sequences and labels used below:
T1: CD96 (UniProt P40200 22-585, limits assumed)
T1 construct: whole, on cells
T1 sequence (looked up): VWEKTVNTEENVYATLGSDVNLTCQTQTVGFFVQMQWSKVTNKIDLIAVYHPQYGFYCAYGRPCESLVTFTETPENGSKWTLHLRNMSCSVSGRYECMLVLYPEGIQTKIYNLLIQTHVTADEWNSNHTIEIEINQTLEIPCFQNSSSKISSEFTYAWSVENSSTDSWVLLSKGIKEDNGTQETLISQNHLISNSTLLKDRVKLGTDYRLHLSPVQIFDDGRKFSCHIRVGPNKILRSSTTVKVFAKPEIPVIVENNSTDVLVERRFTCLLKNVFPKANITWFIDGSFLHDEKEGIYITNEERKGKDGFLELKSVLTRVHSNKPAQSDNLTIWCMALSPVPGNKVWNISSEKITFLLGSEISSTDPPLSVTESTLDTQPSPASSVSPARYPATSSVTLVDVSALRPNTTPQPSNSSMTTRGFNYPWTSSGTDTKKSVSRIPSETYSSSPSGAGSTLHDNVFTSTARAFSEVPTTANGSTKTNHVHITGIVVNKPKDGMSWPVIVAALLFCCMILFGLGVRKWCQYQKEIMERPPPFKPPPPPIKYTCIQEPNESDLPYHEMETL

T2: CD226 (Homo sapiens (Human), UniProt Q15762 19-336)
T2 sequence: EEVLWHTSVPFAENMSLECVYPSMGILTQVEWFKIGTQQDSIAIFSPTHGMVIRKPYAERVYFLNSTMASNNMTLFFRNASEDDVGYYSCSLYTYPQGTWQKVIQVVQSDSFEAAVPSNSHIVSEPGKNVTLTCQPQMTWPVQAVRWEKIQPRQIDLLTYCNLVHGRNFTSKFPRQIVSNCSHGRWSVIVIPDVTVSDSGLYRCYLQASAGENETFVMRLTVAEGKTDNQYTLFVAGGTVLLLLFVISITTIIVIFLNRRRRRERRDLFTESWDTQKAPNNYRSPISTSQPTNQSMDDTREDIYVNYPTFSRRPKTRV

T3: TIGIT (Homo sapiens (Human), UniProt Q495A1 22-244)
T3 sequence: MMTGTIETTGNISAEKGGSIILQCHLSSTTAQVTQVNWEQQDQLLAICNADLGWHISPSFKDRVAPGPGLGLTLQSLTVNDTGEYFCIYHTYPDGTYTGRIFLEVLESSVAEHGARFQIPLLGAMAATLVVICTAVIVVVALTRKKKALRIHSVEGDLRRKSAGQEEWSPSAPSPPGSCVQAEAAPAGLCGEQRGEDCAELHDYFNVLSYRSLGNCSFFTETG

B1: variant CD80 IgV-Fc M47V/K89N (Fc fusion, not shown: small tags and cut ends; a dimerising Fc or GST)
chain: VIHVTKEVKEVATLSCGHNVSVEELAQTRIYWQKEKKMVLTMMSGDVNIWPEYKNRTIFDITNNLSIVILALRPSDEGTYECVVLKYENDAFKREHLAEVTLSVKAD
B2: variant CD80 IgV-Fc V68M (Fc fusion, not shown: small tags and cut ends; a dimerising Fc or GST)
chain: B1 chain with V47M, V68M, N89K
B3: variant CD80 IgV-Fc V68M/L85Q (Fc fusion, not shown: small tags and cut ends; a dimerising Fc or GST)
chain: B1 chain with V47M, V68M, L85Q, N89K
B4: variant CD80 IgV-Fc M47V/N48K (Fc fusion, not shown: small tags and cut ends; a dimerising Fc or GST)
chain: B1 chain with N48K, N89K
B5: variant CD80 IgV-Fc N48K (Fc fusion, not shown: small tags and cut ends; a dimerising Fc or GST)
chain: B1 chain with V47M, N48K, N89K
B6: variant CD80 IgV-Fc M47V/V68M (Fc fusion, not shown: small tags and cut ends; a dimerising Fc or GST)
chain: B1 chain with V68M, N89K
B7: variant CD155 IgV-Fc S42N/L104Q/G111R (Fc fusion, not shown: a dimerising Fc or GST)
chain: WPPPGTGDVVVQAPTQVPGFLGDSVTLPCYLQVPNMEVTHVNQLTWARHGESGSMAVFHQTQGPSYSESKRLEFVAARLGAELRNASLRMFGLRVEDEGNYTCQFVTFPQRSRSVDIWLRVL
B8: variant CD155 IgV-Fc Q62F/L104E/G111R (Fc fusion, not shown: a dimerising Fc or GST)
chain: B7 chain with N42S, Q62F, Q104E
B9: variant CD155 IgV-Fc Q62Y (Fc fusion, not shown: a dimerising Fc or GST)
chain: B7 chain with N42S, Q62Y, Q104L, R111G
B10: variant CD155 IgV-Fc S42W (Fc fusion, not shown: a dimerising Fc or GST)
chain: B7 chain with N42W, Q104L, R111G
B11: variant CD155 IgV-Fc Q62F (Fc fusion, not shown: a dimerising Fc or GST)
chain: B7 chain with N42S, Q62F, Q104L, R111G
B12: variant CD155 IgV-Fc S42A/S52L/L104E/G111R (Fc fusion, not shown: a dimerising Fc or GST)
chain: B7 chain with N42A, S52L, Q104E
B13: variant CD155 IgV-Fc S42N/S52Q/Q62F (Fc fusion, not shown: a dimerising Fc or GST)
chain: B7 chain with S52Q, Q62F, Q104L, R111G
B14: variant CD155 IgV-Fc S42Q (Fc fusion, not shown: a dimerising Fc or GST)
chain: B7 chain with N42Q, Q104L, R111G
B15: variant CD155 IgV-Fc S42W/S52Q/V57L/Q62Y (Fc fusion, not shown: a dimerising Fc or GST)
chain: B7 chain with N42W, S52Q, V57L, Q62Y, Q104L, R111G
B16: variant CD155 IgV-Fc S42L/S52L/Q62F/L104Q (Fc fusion, not shown: a dimerising Fc or GST)
chain: B7 chain with N42L, S52L, Q62F, R111G
B17: variant CD155 IgV-Fc S42A/S52Q/L104Q/G111R (Fc fusion, not shown: a dimerising Fc or GST)
chain: B7 chain with N42A, S52Q
B18: variant CD155 IgV-Fc S42A/L104Q/G111R (Fc fusion, not shown: a dimerising Fc or GST)
chain: B7 chain with N42A
B19: variant CD155 IgV-Fc S42L/S52Q/L104E (Fc fusion, not shown: a dimerising Fc or GST)
chain: B7 chain with N42L, S52Q, Q104E, R111G
B20: variant CD155 IgV-Fc S42C (Fc fusion, not shown: a dimerising Fc or GST)
chain: B7 chain with N42C, Q104L, R111G
B21: variant CD155 IgV-Fc S42W/S52R/Q62Y/L104Q (Fc fusion, not shown: a dimerising Fc or GST)
chain: B7 chain with N42W, S52R, Q62Y, R111G
B22: variant CD155 IgV-Fc S52L (Fc fusion, not shown: a dimerising Fc or GST)
chain: B7 chain with N42S, S52L, Q104L, R111G

Changes are numbered by the printed parent chain. Names and notes keep the numbering of the source.

The first assay has as its target T4, CD28 endogenously expressed on Jurkat/IL2 reporter cells (human, UniProt P10747 19-220).
T4 construct: also called Jurkats (CD28)
Nature of the assay: flow cytometry, Jurkat cells (CD28). (In general: A flow cytometer gives signals particle by particle.)
On to B1, for which the “MFI at 33.3 nM” value came out at 197 MFI.
Still for that read-out and setting: the figure for B2 is 37.9 MFI; for B3 it is 91.7 MFI; for B4 it is 413 MFI.
The same measure, in the same setting: the figure for B5 is 60.1 MFI.
On to B6, for which the “MFI at 33.3 nM” value was found to be 328 MFI.

In another assay the target is T5, human PD-L1, full-length, on CHO cells (human, UniProt Q9NZQ7 19-290).
T5 construct: also called huPD-L1; CD274
T5 sequence (Q9NZQ7 19-290): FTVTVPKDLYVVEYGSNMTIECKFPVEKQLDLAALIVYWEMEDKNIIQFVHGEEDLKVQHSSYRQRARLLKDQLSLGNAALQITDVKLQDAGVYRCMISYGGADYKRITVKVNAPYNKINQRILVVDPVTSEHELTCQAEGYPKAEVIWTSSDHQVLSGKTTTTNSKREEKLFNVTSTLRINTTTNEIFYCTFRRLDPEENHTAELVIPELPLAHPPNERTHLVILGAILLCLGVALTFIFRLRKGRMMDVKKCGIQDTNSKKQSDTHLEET
The experiment in a line: flow cytometry; PD-L1 MFI over CD28 MFI.
On to B1, for which the “Ratio of PDL1:CD28” value was found to be 3.2 ratio.
B2: the “Ratio of PDL1:CD28” value was 3.1 ratio.
On the same count and under the same terms, next, B3: 3.8 ratio.
Same read-out and setting: next, B4: 7.5 ratio; B5: 8 ratio; B6: 13.1 ratio.

In another assay the target is T6, human CTLA4 (CTLA-4), full-length, on CHO cells (human, UniProt P16410 36-223).
T6 construct: also called huCTLA4
T6 sequence (P16410 36-223): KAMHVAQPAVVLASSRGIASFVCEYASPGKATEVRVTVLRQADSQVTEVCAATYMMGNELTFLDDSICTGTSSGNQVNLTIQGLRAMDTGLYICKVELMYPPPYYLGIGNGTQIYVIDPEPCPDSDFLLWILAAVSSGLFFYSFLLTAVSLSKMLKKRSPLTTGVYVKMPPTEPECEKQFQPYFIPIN
The experiment in a line: flow cytometry, CHO cells stably expressing CTLA4.
Consider B1, for which the “MFI at 33.3 nM” value is 32400 MFI.
Same read-out and setting: the figure for B2 is 568 MFI; for B3 it is 3290 MFI; for B4 it is 44600 MFI.
On the same count and under the same terms, the figure for B5 is 4950 MFI; for B6 it is 7280 MFI.

The next assay concerns the target T5, human PD-L1, full-length, on CHO cells. Nature of the assay: flow cytometry, CHO cells stably expressing PD-L1.
B1: the “MFI at 33.3 nM” value was determined as 622 MFI.
With B2, the “MFI at 33.3 nM” value turned out to be 118 MFI.
The same measure, in the same setting: next, B3: 347 MFI; B4: 3080 MFI.
Same read-out and setting: next, B5: 481 MFI.
The same measure, in the same setting: the figure for B6 is 4290 MFI.

A further assay has as its target T1, CD96. Nature of the assay: flow cytometry, Fc fusion at 100 nM, CD96-transfected cells.
With B7, the “MFI at 100 nM” value came out at 1960 MFI.
Same read-out and setting: next, B8: 1520 MFI.
Still for that read-out and setting: next, B9: 1830 MFI; B10: 2560 MFI.
The same measure, in the same setting: next, B11: 2760 MFI.
Consider B12, for which the “MFI at 100 nM” value came out at 1610 MFI.
The same measure, in the same setting: next, B13: 1740 MFI.
Turning to B14, the “MFI at 100 nM” value stood at 2140 MFI.
Still for that read-out and setting: next, B15: 1700 MFI; B16: 2320 MFI.
Turning to B17, the “MFI at 100 nM” value came out at 1640 MFI.
Still for that read-out and setting: next, B18: 1700 MFI.
The same measure, in the same setting: the figure for B19 is 1700 MFI; for B20 it is 1590 MFI; for B21 it is 1760 MFI.

For another assay, the target named is T2, CD226. Nature of the assay: flow cytometry, Fc fusion at 100 nM, CD226-transfected cells.
On to B22, for which the “MFI at 100 nM” value came out at 2680 MFI.
With B7, the “MFI at 100 nM” value is 2310 MFI.
For B8, the “MFI at 100 nM” value was found to be 2040 MFI.
The same measure, in the same setting: next, B9: 2620 MFI; B10: 2130 MFI; B11: 2570 MFI.
Still for that read-out and setting: the figure for B12 is 1890 MFI; for B13 it is 2150 MFI; for B14 it is 2230 MFI.
On the same count and under the same terms, next, B15: 2140 MFI; B16: 2640 MFI.
For B17, the “MFI at 100 nM” value was found to be 2160 MFI.
On the same count and under the same terms, next, B18: 1900 MFI; B19: 6470 MFI.
Still for that read-out and setting: the figure for B20 is 2100 MFI.
On the same count and under the same terms, the figure for B21 is 2300 MFI.

Another assay concerns the target T3, TIGIT. The experiment in a line: flow cytometry, Fc fusion at 100 nM, TIGIT-transfected cells.
As to B22, the “MFI at 100 nM” value was found to be 2220 MFI.
In the case of B7, the “MFI at 100 nM” value turned out to be 2430 MFI.
Still for that read-out and setting: next, B8: 1970 MFI; B9: 2530 MFI; B10: 2430 MFI.
As for B11, the “MFI at 100 nM” value was determined as 2210 MFI.
Still for that read-out and setting: the figure for B12 is 2260 MFI.
The same measure, in the same setting: next, B13: 2400 MFI; B14: 2070 MFI.
The same measure, in the same setting: the figure for B15 is 1960 MFI.
Regarding B16, the “MFI at 100 nM” value was 2020 MFI.
As for B17, the “MFI at 100 nM” value was found to be 1810 MFI.
Same read-out and setting: next, B18: 1920 MFI; B19: 1950 MFI; B20: 1910 MFI.
Still for that read-out and setting: the figure for B21 is 1920 MFI.

Another assay addresses T6, human CTLA4 (CTLA-4), full-length, on …. The experiment in a line: flow cytometry, CHO/CTLA4 cells; MFI relative to WT CD80 ECD-Fc.
For B1, the “Fold change to WT CD80” value was 0.8 fold.
The same measure, in the same setting: next, B2: 0 fold; B3: 0.1 fold.
Same read-out and setting: the figure for B4 is 1.1 fold; for B5 it is 0.1 fold; for B6 it is 0.2 fold.

Another assay addresses T5, human PD-L1, full-length, on CHO cells. The experiment in a line: flow cytometry, CHO/PD-L1 cells; MFI relative to WT CD80 ECD-Fc.
B1: the “Fold change to WT CD80” value worked out at 4.9 fold.
In the case of B2, the “Fold change to WT CD80” value was found to be 0.9 fold.
On the same count and under the same terms, the figure for B3 is 2.7 fold.
On the same count and under the same terms, the figure for B4 is 24.1 fold; for B5 it is 3.8 fold.
Regarding B6, the “Fold change to WT CD80” value came out at 33.5 fold.

The next assay concerns the target T4, CD28 endogenously expressed on …. Nature of the assay: flow cytometry, Jurkat cells (CD28); MFI relative to WT CD80 ECD-Fc.
Turning to B1, the “Fold change to WT CD80” value amounted to 0.3 fold.
The same measure, in the same setting: next, B2: 0.1 fold; B3: 0.1 fold; B4: 0.6 fold.
For the molecule B5, the “Fold change to WT CD80” value was determined as 0.1 fold.
The same measure, in the same setting: the figure for B6 is 0.5 fold.
